Patent publication US20230364254A1, “METHODS FOR TREATING CANCERS WITH ANTIBODY DRUG CONJUGATES (ADC) THAT BIND TO 191P4D12 PROTEINS” (priority 2020, published 2023)

System: patients with locally advanced or metastatic urothelial cancer
Experiment: Same phase 2 study: safety (adverse events, NCI CTCAE v4.03)
Assay type: in vivo, human
Source text: Safety assessments will be based on the information collected through the safety surveillance process and will include the data from recorded adverse events (AEs) including SAEs, recording of concomitant medication, physical examination findings, cardiac monitoring, and laboratory tests.
The assessment of safety during the course of this study will consist of the surveillance and recording of AEs including SAEs, recording of concomitant medication, and measurements of protocol-specified physical examination findings, cardiac monitoring, and laboratory tests.
AE severity should be graded using the National Cancer Institute's Common Terminology Criteria for Adverse Events (NCI CTCAE), Version 4.03. These criteria are provided in the study manual.
An overview of AEs will provide a tabulation of the incidence of all AEs, treatment-emergent AEs, treatment-related AEs, Grade 3 and higher AEs. SAEs, treatment-related SAEs, deaths, and AEs leading to study treatment discontinuation. Adverse events will be defined as treatment emergent if they are newly occurring or worsened following study treatment.
AEs will be classified by system organ class and preferred tem using the Medical Dictionary for Regulatory Activities (MedDRA) and graded using NCI CTCAE, Version 4.03.
The incidence of AEs will be summarized by system organ class, preferred term, severity and relationship to study drug. In the event of multiple occurrences of the same AE in one patient, the AE will be counted once as the occurrence for the maximum grade. AEs leading to premature discontinuation of study drug will be summarized and listed in the same manner.

[1] = Cohort 1 (N = 125), count (percent)

## enfortumab vedotin: Nectin-4 directed ADC: fully human anti-nectin-4 IgG1 kappa antibody (AGS-22C3) conjugated to MMAE via protease-cleavable maleimidocaproyl valine-citrulline linker
Cohort 1 (N = 125)
  AE of special interest, All Grade: Hyperglycemia: 20 (16) N (%)
  AE of special interest, All Grade: IRR: 8 (6.4) N (%)
  AE of special interest, All Grade: Ocular Events, Blurred Vision: 21 (16.8) N (%)
  AE of special interest, All Grade: Ocular Events, Corneal Disorders: 18 (14.4) N (%)
  AE of special interest, All Grade: Ocular Events, Dry Eye Disorders: 51 (40.8) N (%)
  AE of special interest, All Grade: Peripheral Neuropathy: 70 (56) N (%)
  AE of special interest, All Grade: Rash: 67 (53.6) N (%)
  AE of special interest, ≥Gr 3: Hyperglycemia: 10 (8) N (%)
  AE of special interest, ≥Gr 3: IRR: 1 (0.8) N (%)
  AE of special interest, ≥Gr 3: Peripheral Neuropathy: 5 (4) N (%)
  AE of special interest, ≥Gr 3: Rash: 15 (12.0) N (%)
  Any TEAEs: 125 (100.0) n (%)
  Any TEAEs leading to death: 7 (5.6) n (%)
  Any TEAEs leading to treatment discontinuation: 21 (16.8) n (%)
  Any grade 3-5 TEAEs: 92 (73.6) n (%)
  Any serious TEAEs: 58 (46.4) n (%)
  SAEs (All): Acute kidney injury: 4 (3.2) n (%)
  SAEs (All): Cellulitis: 6 (4.8) n (%)
  SAEs (All): Diarrhoea: 3 (2.4) n (%)
  SAEs (All): Febrile neutropenia: 5 (4.0) n (%)
  SAEs (All): Nausea: 3 (2.4) n (%)
  SAEs (All): Overall: 59 (47.2) n (%)
  SAEs (All): Pneumonia: 3 (2.4) n (%)
  SAEs (All): Sepsis: 4 (3.2) n (%)
  SAEs (All): Urinary tract infection: 6 (4.8) n (%)
  SAEs (Related): Acute kidney injury: 1 (0.8) n (%)
  SAEs (Related): Cellulitis: 2 (1.6) n (%)
  SAEs (Related): Diarrhoea: 1 (0.8) n (%)
  SAEs (Related): Febrile neutropenia: 5 (4.0) n (%)
  SAEs (Related): Nausea: 3 (2.4) n (%)
  SAEs (Related): Overall: 24 (19.2) n (%)
  Treatment-related AE leading to discontinuation: Asthenia: 1 (0.8) n (%)
  Treatment-related AE leading to discontinuation: Drug eruption: 1 (0.8) n (%)
  Treatment-related AE leading to discontinuation: Enterocolitis: 1 (0.8) n (%)
  Treatment-related AE leading to discontinuation: Fatigue: 1 (0.8) n (%)
  Treatment-related AE leading to discontinuation: Hyperglycaemia: 1 (0.8) n (%)
  Treatment-related AE leading to discontinuation: Interstitial lung disease: 1 (0.8) n (%)
  Treatment-related AE leading to discontinuation: Overall: 15 (12.0) n (%)
  Treatment-related AE leading to discontinuation: Peripheral sensory neuropathy: 8 (6.4) n (%)
  Treatment-related AE leading to discontinuation: Stevens-Johnson syndrome: 1 (0.8) n (%)
  Treatment-related TEAEs: 117 (93.6) n (%)
  Treatment-related TEAEs (all grades): Alopecia: 62 (49.6) n (%)
  Treatment-related TEAEs (all grades): Anaemia: 27 (21.6) n (%)
  Treatment-related TEAEs (all grades): Aspartate aminotransferase increased: 17 (13.6) n (%)
  Treatment-related TEAEs (all grades): Decreased appetite: 55 (44.0) n (%)
  Treatment-related TEAEs (all grades): Diarrhoea: 41 (32.8) n (%)
  Treatment-related TEAEs (all grades): Dry eye: 25 (20.0) n (%)
  Treatment-related TEAEs (all grades): Dry skin: 30 (24.0) n (%)
  Treatment-related TEAEs (all grades): Dysgeusia: 47 (37.6) n (%)
  Treatment-related TEAEs (all grades): Fatigue: 62 (49.6) n (%)
  Treatment-related TEAEs (all grades): Lacrimation increased: 21 (16.8) n (%)
  Treatment-related TEAEs (all grades): Nausea: 50 (40.0) n (%)
  Treatment-related TEAEs (all grades): Neutropenia: 13 (10.4) n (%)
  Treatment-related TEAEs (all grades): Oedema peripheral: 15 (12.0) n (%)
  Treatment-related TEAEs (all grades): Overall: 117 (93.6) n (%)
  Treatment-related TEAEs (all grades): Peripheral sensory neuropathy: 50 (40.0) n (%)
  Treatment-related TEAEs (all grades): Pruritus: 32 (25.6) n (%)
  Treatment-related TEAEs (all grades): Rash maculo-papular: 28 (22.4) n (%)
  Treatment-related TEAEs (all grades): Vomiting: 19 (15.2) n (%)
  Treatment-related TEAEs (all grades): Weight decreased: 29 (23.2) n (%)
  Treatment-related TEAEs leading to death: 0 n (%)
  Treatment-related TEAEs leading to treatment discontinuation: 15 (12.0) n (%)
  Treatment-related TEAEs ≥Grade 3: Acute kidney injury: 1 (0.8) n (%)
  Treatment-related TEAEs ≥Grade 3: Amylase increased: 3 (2.4) n (%)
  Treatment-related TEAEs ≥Grade 3: Anaemia: 9 (7.2) n (%)
  Treatment-related TEAEs ≥Grade 3: Aspartate aminotransferase increased: 4 (3.2) n (%)
  Treatment-related TEAEs ≥Grade 3: Decreased appetite: 1 (0.8) n (%)
  Treatment-related TEAEs ≥Grade 3: Diarrhoea: 3 (2.4) n (%)
  Treatment-related TEAEs ≥Grade 3: Fatigue: 8 (6.4) n (%)
  Treatment-related TEAEs ≥Grade 3: Febrile neutropenia: 5 (4.0) n (%)
  Treatment-related TEAEs ≥Grade 3: Hyperglycaemia: 5 (4.0) n (%)
  Treatment-related TEAEs ≥Grade 3: Hyponatraemia: 3 (2.4) n (%)
  Treatment-related TEAEs ≥Grade 3: Lipase increased: 5 (4.0) n (%)
  Treatment-related TEAEs ≥Grade 3: Neutropenia: 10 (8.0) n (%)
  Treatment-related TEAEs ≥Grade 3: Neutrophil count decreased: 3 (2.4) n (%)
  Treatment-related TEAEs ≥Grade 3: Overall: 70 (56.0) n (%)
  Treatment-related TEAEs ≥Grade 3: Peripheral sensory neuropathy: 2 (1.6) n (%)
  Treatment-related TEAEs ≥Grade 3: Pruritus: 2 (1.6) n (%)
  Treatment-related TEAEs ≥Grade 3: Rash erythematous: 4 (3.2) n (%)
  Treatment-related TEAEs ≥Grade 3: Rash maculo-papular: 5 (4.0) n (%)
  Treatment-related grade 3-5 TEAEs: 70 (56.9) n (%)
  Treatment-related serious TEAEs: 24 (19.2) n (%)
[1]
  TEAEs leading to death (excluding disease progression): Acute respiratory failure: 1 (0.8)
  TEAEs leading to death (excluding disease progression): Cardiac disorder: 1 (0.8)
  TEAEs leading to death (excluding disease progression): Overall: 4 (3.2)
  TEAEs leading to death (excluding disease progression): Pneumonia aspiration: 1 (0.8)
  TEAEs leading to death (excluding disease progression): Sepsis: 1 (0.8)
Cohort 2 (N = 89)
  AE of special interest, All Grade: Hyperglycemia: 16 (18) N (%)
  AE of special interest, All Grade: IRR: 6 (6.7) N (%)
